Experimental data taken from US20230331823A1 (HENRY M JACKSON FOUNDATION FOR THE ADVANCEMENT OF MILITARY …, published 2023).
Where two headings read alike, the source gives them in different places.

B1: ShAb01H06K (ShAb01Hole-06Knob) (bispecific antibody, V domains shown)
V domain 1: ARVDQTPRSVTKETGESLTINCVLRDSNCALSSTHWYRKKSGSTNEERILQGRRYVETVNSGSKSFSLRINDLRVEDSGTYRCKVYWGNSWQDKFCPGLGSYEYGDGTAVTVNS
V domain 2: ARVDQTPRSVTKETGESLTINCVLRDASYALGSTCWYRKKSGSTNEESISKGGRYVETVNSGSKSFSLRINDLTVEDGGTYRCGVGRGLGVGCDYPLCSYSYAACGDGTAVTVNS
B2: ShAb06H02K (ShAb06Hole-02Knob) (bispecific antibody, V domains shown)
V domain 1: ARVDQTPRSVTKETGESLTINCVLRDASYALGSTCWYRKKSGSTNEESISKGGRYVETVNSGSKSFSLRINDLTVEDGGTYRCGVGRGLGVGCDYPLCSYSYAACGDGTAVTVNS
V domain 2: ARVDQTPQTITKETGESLTINCVLRDSNCALASTDWYRKKSGSTNEESISKGGRYVETVNSGSKSFSLRINDLTVEDSGTYRCNAWDSWETRQLKCDYDVYGGGTVVTVNS
B3: ShAb01-Foldon (ShAb01 VNAR-KESlinker-Foldon-3c-His8-Strep) (VNAR)
VNAR: ARVDQTPRSVTKETGESLTINCVLRDSNCALSSTHWYRKKSGSTNEERILQGRRYVETVNSGSKSFSLRINDLRVEDSGTYRCKVYWGNSWQDKFCPGLGSYEYGDGTAVTVNK
B4: ShAb02-Foldon (ShAb02 VNAR-KESlinker-Foldon-3c-His8-Strep) (VNAR)
VNAR: ARVDQTPQTITKETGESLTINCVLRDSNCALASTDWYRKKSGSTNEESISKGGRYVETVNSGSKSFSLRINDLTVEDSGTYRCNAWDSWETRQLKCDYDVYGGGTVVTVNK
B5: MoB3-3D8_Fc chimera antibody (Fc fusion)
chain: ARVDQTPQTITKETGESLTINCVLRDSNCALASTDWYRKKSGSTNEESISKGGRYVETVNSGSKSFSLRINDLTVEDSGTYRCNAWDSWETRQLKCDYDVYGGGTVVTVN

Legend:
[1] = molecular target: T1, SARS-CoV-2 Alpha (B.1.1.7) Spike on pseudovirions (SARS-CoV-2); experiment: cell-based or functional assay
[2] = molecular target: T2, SARS-CoV-2 Beta (B.1.351) Spike on pseudovirions (SARS-CoV-2); experiment: cell-based or functional assay
[3] = molecular target: T1, SARS-CoV-2 Alpha (B.1.1.7) Spike on …; experiment: cell-based or functional assay; remark: listed apart in the source
[4] = molecular target: T2, SARS-CoV-2 Beta (B.1.351) Spike on …; experiment: cell-based or functional assay; remark: listed apart in the source
[5] = molecular target: Spike Ferritin nanoparticle SpFN_pCoV1B-06-PL (PrefLead-S2P.1158op1-del-Ferritin) (SARS-CoV-2 Spike ectodomain fused to …); experiment: BLI, Fc fusion on AHC probe, SpFN_pCoV1B-06-PL in solution

| Binder | pseudovirus neutralization IC50 [1] [µg/mL] | pseudovirus neutralization IC80 [1] [µg/mL] | pseudovirus neutralization IC50 [2] [µg/mL] | pseudovirus neutralization IC80 [2] [µg/mL] | pseudovirus neutralization IC50 [3] [µg/mL] | pseudovirus neutralization IC50 [4] [µg/mL] | binding result [5] |
| --- | --- | --- | --- | --- | --- | --- | --- |
| B1 | 1.37 | 2.65 | 1.28 | 6.17 | – | – | – |
| B2 | 0.109 | 0.225 | 0.18 | 0.424 | – | – | – |
| B3 | 0.119 | 0.328 | 0.075 | 0.164 | 0.12 | 0.07 | – |
| B4 | 0.035 | 0.104 | 0.397 | 1.8 | 0.04 | 0.02 | – |
| B5 | – | – | – | – | – | – | binds |
